Reference: patent US20080207668A1, “PHARMACEUTICAL COMPOSITIONS OF HYD[…] PREVENTION OF OVERDOSE OR ABUSE” (New River Pharmaceuticals Inc., priority 2006, published 2008)
Structures can show the parent of a compound that is named as a salt. Residues, ends and D or L forms follow the SMILES beside them. *: point of attachment. X5 = CC(=O)Oc1ccc2c3c1O[C@H]1C(O*)=CC[C@H]4[C@@H](C2)N(C)CC[C@]314; X2 = CN1CC[C@]23c4c5ccc(O)c4O[C@H]2C(O*)=CC[C@H]3[C@H]1C5

What was measured:
[1] = Intranasal bioavailability of hydromorphone conjugates (plasma hydromorphone after intranasal dosing); type: in vivo, male Sprague-Dawley rats; conditions: rat, relative to hydromorphone control
Description: Oral, and intranasal bioavailability studies of hydromorphone and hydromorphone conjugates were conducted in male Sprague-Dawley rats. Doses of hydromorphone hydrochloride and hydromorphone conjugates containing equivalent amounts of hydromorphone were administered in deionized water. Oral administration was in 0.5 ml by gavage needle. Intranasal doses were administered by placing 20 microliters into the nasal flares of rats anesthetized with isoflurane. Plasma was collected by retroorbital sinus puncture under isoflurane anesthesia. hydromorphone were determined by LC/MS/MS.
Male Sprague-Dawley rats were provided water ad libitum and doses were administered by placing 0.02 ml of water containing hydromorphone conjugates or hydromorphone […] into the nasal flares. All doses contained equivalent amounts of hydromorphone base. Plasma hydromorphone concentrations were measured by ELISA (hydromorphone, 102919, Neogen, Corporation, Lexington, Ky.) and/or LC/MS. The assay is specific for hydromorphone. These examples illustrate that hydromorphone conjugates decrease the peak level (Cmax) and total absorption (AUC) of hydromorphone as compared to those produced by equimolar (hydromorphone base) doses of hydromorphone HCl when given by the intranasal route of administration.
The following Tables include Hydromorphone amino acid and peptide HCl salt conjugates that were synthesized and tested. Both oral and intranasal bioavailabilities were measured. The bold values are the “corrected values”, that were calculated based on the bioavailability of the control (HM).

[2] = Oral bioavailability of hydromorphone conjugates (plasma hydromorphone after oral gavage); conditions: rat, relative to hydromorphone control

With `CC(C)[C@H](NC(=O)[C@H](Cc1ccccc1)NC(=O)[C@@H](N)Cc1ccccc1)C(=O)OC1=CC[C@H]2[C@H]3Cc4ccc(O)c5c4[C@@]2(CCN3C)[C@H]1O5` [FFV-HM] the “IN AUC % (corrected value based on bioavailability of control HM)” value (“IN AUC %” below) [1] was 98%, the “IN Cmax % (corrected value based on control HM)” value (from here on “IN Cmax %”) [1] was 103% and the “Oral AUC % (corrected value based on bioavailability of control HM)” value (“Oral AUC %” below) [2] was 8%. For the same molecule, the “Oral Cmax % (corrected value based on control HM)” value (“Oral Cmax %” below) [2] was 36%.

For `CC(C)[C@H](NC(=O)[C@H](CCCCN)NC(=O)[C@@H](N)CCCCN)C(=O)OC1=CC[C@H]2[C@H]3Cc4ccc(O)c5c4[C@@]2(CCN3C)[C@H]1O5` [KKV-HM], the “IN AUC %” value [1] was 75%, the “IN Cmax %” value [1] was 89% and the “Oral AUC %” value [2] was 43%. The “Oral Cmax %” value [2] was 60%.

With `CC(C)C[C@H](NC(=O)[C@H](Cc1ccc(O)cc1)NC(=O)[C@@H](N)Cc1ccc(O)cc1)C(=O)OC1=CC[C@H]2[C@H]3Cc4ccc(O)c5c4[C@@]2(CCN3C)[C@H]1O5` [YYL-HM] the “IN AUC %” value [1] was 74%, the “IN Cmax %” value [1] was 75% and the “Oral AUC %” value [2] was 12%. For the same molecule, the “Oral Cmax %” value [2] was 30%.

For `CC[C@H](C)[C@H](NC(=O)[C@H](CCC(=O)O)NC(=O)[C@@H](N)CCC(=O)O)C(=O)OC1=CC[C@H]2[C@H]3Cc4ccc(O)c5c4[C@@]2(CCN3C)[C@H]1O5` [EEI-HM], the “IN AUC %” value [1] was 59%, the “IN Cmax %” value [1] was 88% and the “Oral AUC %” value [2] was 56%. The “Oral Cmax %” value [2] was 73%.

With `CC(C)[C@H](NC(=O)[C@H](Cc1ccc(O)cc1)NC(=O)[C@@H](N)Cc1ccc(O)cc1)C(=O)OC1=CC[C@H]2[C@H]3Cc4ccc(O)c5c4[C@@]2(CCN3C)[C@H]1O5` [YYV-HM] the “IN AUC %” value [1] was 73%, the “IN Cmax %” value [1] was 73% and the “Oral AUC %” value [2] was 30%. For the same molecule, the “Oral Cmax %” value [2] was 53%.

For `CC[C@H](C)[C@H](NC(=O)[C@H](Cc1ccccc1)NC(=O)[C@H](Cc1ccccc1)NC(=O)[C@H](Cc1ccc(O)cc1)NC(=O)[C@@H](N)Cc1ccc(O)cc1)C(=O)OC1=CC[C@H]2[C@H]3Cc4ccc(O)c5c4[C@@]2(CCN3C)[C@H]1O5` [YYFFI-HM] (H-YYFFI-X2), the “IN AUC %” value [1] was 4%, the “IN Cmax %” value [1] was 7% and the “Oral AUC %” value [2] was 40%. The “Oral Cmax %” value [2] was 52%.

With `CC(C)C[C@H](NC(=O)[C@@H]1CCCN1C(=O)[C@@H]1CCCN1)C(=O)OC1=CC[C@H]2[C@H]3Cc4ccc(O)c5c4[C@@]2(CCN3C)[C@H]1O5` [PPL-HM] the “IN AUC %” value [1] was 53%, the “IN Cmax %” value [1] was 70% and the “Oral AUC %” value [2] was 22%. For the same molecule, the “Oral Cmax %” value [2] was 45%.

For `CC[C@H](C)[C@H](NC(=O)[C@H](Cc1ccc(O)cc1)NC(=O)[C@@H](N)Cc1ccc(O)cc1)C(=O)OC1=CC[C@H]2[C@H]3Cc4ccc(O)c5c4[C@@]2(CCN3C)[C@H]1O5` [YYI-HM], the “IN AUC %” value [1] was 88%, the “IN Cmax %” value [1] was 86% and the “Oral AUC %” value [2] was 32%. For the same molecule, the “Oral Cmax %” value [2] was 66%.

For `CC(C)C[C@H](NC(=O)[C@H](Cc1ccccc1)NC(=O)[C@@H](N)Cc1ccccc1)C(=O)OC1=CC[C@H]2[C@H]3Cc4ccc(O)c5c4[C@@]2(CCN3C)[C@H]1O5` [FFL-HM], the “IN AUC %” value [1] was 92%, the “IN Cmax %” value [1] was 96% and the “Oral AUC %” value [2] was 11%. The “Oral Cmax %” value [2] was 24%.

With `CN1CC[C@]23c4c5ccc(O)c4O[C@H]2C(OC(=O)[C@H](Cc2ccccc2)NC(=O)[C@H](Cc2ccccc2)NC(=O)[C@H](Cc2ccccc2)NC(=O)[C@H](CCC(=O)O)NC(=O)[C@@H](N)CCC(=O)O)=CC[C@H]3[C@H]1C5` [EEFFF-HM, Glu2-Phe3-Hydromorphone.Dihydrochloride] (H-EEFFF-X2) the “IN AUC %” value [1] was 52%, the “IN Cmax %” value [1] was 57% and the “Oral AUC %” value [2] was 79%. For the same molecule, the “Oral Cmax %” value [2] was 78%.

For `CC(C)[C@H](NC(=O)CNC(=O)CN)C(=O)OC1=CC[C@H]2[C@H]3Cc4ccc(O)c5c4[C@@]2(CCN3C)[C@H]1O5` [GGV-HM], the “IN AUC %” value [1] was 51%, the “IN Cmax %” value [1] was 73% and the “Oral AUC %” value [2] was 53%. The “Oral Cmax %” value [2] was 63%.

For `CC(C)C[C@H](NC(=O)[C@H](CCC(=O)O)NC(=O)[C@@H](N)CCC(=O)O)C(=O)OC1=CC[C@H]2[C@H]3Cc4ccc(O)c5c4[C@@]2(CCN3C)[C@H]1O5` [EEL-HM], the “IN AUC %” value [1] was 84%, the “IN Cmax %” value [1] was 98% and the “Oral AUC %” value [2] was 27%. The “Oral Cmax %” value [2] was 49%.

With `CC(C)[C@H](NC(=O)[C@@H]1CCCN1C(=O)[C@@H]1CCCN1)C(=O)OC1=CC[C@H]2[C@H]3Cc4ccc(O)c5c4[C@@]2(CCN3C)[C@H]1O5` [PPV-HM] the “IN AUC %” value [1] was 71%, the “IN Cmax %” value [1] was 101% and the “Oral AUC %” value [2] was 24%. The “Oral Cmax %” value [2] was 55%.

With `CC(C)[C@H](NC(=O)[C@H](CCC(=O)O)NC(=O)[C@@H](N)CCC(=O)O)C(=O)OC1=CC[C@H]2[C@H]3Cc4ccc(O)c5c4[C@@]2(CCN3C)[C@H]1O5` [EEV-HM] the “IN AUC %” value [1] was 31%, the “IN Cmax %” value [1] was 70% and the “Oral AUC %” value [2] was 21%. For the same molecule, the “Oral Cmax %” value [2] was 50%.

For `CC[C@H](C)[C@H](NC(=O)[C@H](Cc1ccccc1)NC(=O)[C@@H](N)Cc1ccccc1)C(=O)OC1=CC[C@H]2[C@H]3Cc4ccc(O)c5c4[C@@]2(CCN3C)[C@H]1O5` [FFI-HM], the “IN AUC %” value [1] was 79%, the “IN Cmax %” value [1] was 92% and the “Oral AUC %” value [2] was 18%. The “Oral Cmax %” value [2] was 47%.

With `CC[C@H](C)[C@H](NC(=O)[C@@H]1CCCN1C(=O)[C@@H]1CCCN1)C(=O)OC1=CC[C@H]2[C@H]3Cc4ccc(O)c5c4[C@@]2(CCN3C)[C@H]1O5` [PPI-HM] the “IN AUC %” value [1] was 77%, the “IN Cmax %” value [1] was 95% and the “Oral AUC %” value [2] was 21%. For the same molecule, the “Oral Cmax %” value [2] was 60%.

With `CC(C)C[C@H](NC(=O)[C@H](CCCCN)NC(=O)[C@@H](N)CCCCN)C(=O)OC1=CC[C@H]2[C@H]3Cc4ccc(O)c5c4[C@@]2(CCN3C)[C@H]1O5` [KKL-HM] the “IN AUC %” value [1] was 87%, the “IN Cmax %” value [1] was 96% and the “Oral AUC %” value [2] was 24%. The “Oral Cmax %” value [2] was 50%.

With `CC(C)C[C@H](NC(=O)CNC(=O)CN)C(=O)OC1=CC[C@H]2[C@H]3Cc4ccc(O)c5c4[C@@]2(CCN3C)[C@H]1O5` [GGL-HM] the “IN AUC %” value [1] was 52%, the “IN Cmax %” value [1] was 85% and the “Oral AUC %” value [2] was 22%. The “Oral Cmax %” value [2] was 43%.

In the case of `CC[C@H](C)[C@H](NC(=O)CNC(=O)CN)C(=O)OC1=CC[C@H]2[C@H]3Cc4ccc(O)c5c4[C@@]2(CCN3C)[C@H]1O5` [GGI-HM], the “IN AUC %” value [1] is reported as 24%, the “IN Cmax %” value [1] is reported as 66% and the “Oral AUC %” value [2] is reported as 17%. The “Oral Cmax %” value [2] was 32%.

With `CC[C@H](C)[C@H](NC(=O)[C@H](Cc1ccccc1)NC(=O)[C@H](Cc1ccccc1)NC(=O)[C@H](Cc1ccc(O)cc1)NC(=O)[C@@H](N)Cc1ccc(O)cc1)C(=O)OC1=CC[C@H]2[C@H]3Cc4ccc(OC(C)=O)c5c4[C@@]2(CCN3C)[C@H]1O5` [YYFFI-HM-OAc] (H-YYFFI-X5) the “IN AUC %” value [1] was 59%, the “IN Cmax %” value [1] was 72% and the “Oral AUC %” value [2] was 29%. The “Oral Cmax %” value [2] was 40%.

With `CC[C@H](C)[C@H](NC(=O)[C@H](CCCCN)NC(=O)[C@@H](N)CCCCN)C(=O)OC1=CC[C@H]2[C@H]3Cc4ccc(O)c5c4[C@@]2(CCN3C)[C@H]1O5` [KKI-HM] the “IN AUC %” value [1] was 68%, the “IN Cmax %” value [1] was 85% and the “Oral AUC %” value [2] was 24%. The “Oral Cmax %” value [2] was 56%.
